Experimental data as given in publication PMC12046042.

Assays:
Assay in all cases: SPR
FcγRIIb = target: FcγRIIb
[1] = target: FcγRI (CD64) extracellular domain (UniProt P12314)
FcγRIIIa-158F = target: FcγRIIIa-158F
FcγRIIIa-158V = target: FcγRIIIa-158V
FcγRIIa-131H = target: FcγRIIa-131H
FcγRIIa-131R = target: FcγRIIa-131R

FcγRI (CD64) extracellular domain, sequence (P12314 16-292): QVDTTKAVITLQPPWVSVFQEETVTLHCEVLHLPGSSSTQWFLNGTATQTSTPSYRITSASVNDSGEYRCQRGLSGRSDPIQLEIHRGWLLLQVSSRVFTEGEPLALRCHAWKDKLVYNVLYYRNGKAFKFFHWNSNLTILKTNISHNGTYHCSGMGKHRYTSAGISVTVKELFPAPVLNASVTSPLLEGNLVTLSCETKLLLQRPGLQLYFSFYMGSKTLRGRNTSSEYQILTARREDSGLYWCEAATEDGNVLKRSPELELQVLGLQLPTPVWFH

Substance | Kd (FcγRIIb) | Kd [1] | Kd (FcγRIIIa-158F) | Kd (FcγRIIIa-158V) | Kd (FcγRIIa-131H) | Kd (FcγRIIa-131R)
Hu IgG1 | 4400 nM | 0.0643 nM | 1400 nM | 200 nM | 600 nM | 800 nM
Hu IgG4PAA | > 10000 nM | > 200 nM | > 10000 nM | 8900 nM | > 10000 nM | > 10000 nM
Hu IgG4P | 1600 nM | 0.472 nM | 10000 nM | 3100 nM | 4100 nM | 1600 nM
